Experimental findings from patent US20230302116A1 are described below.

Broadly, the kon is the second-order rate constant of association.

In experiment [1] the target is nAb1 (Active Motif 91349), human anti-spike neutralizing antibody. Kind of experiment: Octet BLI, target on AHC sensor, spike as analyte. In general terms: In BLI a coated tip is dipped into the sample, and binding shifts an interference pattern.
The target of experiment [2] is nAb2 (Active Motif 91361), human anti-spike neutralizing antibody. Briefly: Octet BLI, target on AHC sensor, spike as analyte.
Experiment [3] has as its target nAb3 (Absolute Antibody Ab01680-10.0), human anti-spike neutralizing antibody. Kind of experiment: Octet BLI, target on AHC sensor, spike as analyte.
The target in experiment [4] is nAb1 (Active Motif 91349), human anti-spike neutralizing antibody. Kind of experiment: repeat Octet BLI, target on AHC sensor, spike as analyte.
Experiment [5] has as its target nAb2 (Active Motif 91361), human anti-spike neutralizing antibody. The description is as above.
The target of experiment [6] is nAb3 (Absolute Antibody Ab01680-10.0), human anti-spike neutralizing antibody. Described as above.

For “SPN-C52H8 (SARS-CoV 2 Spike protein with His Tag, Acro Biosystems) (from UniProt P0DTC2 14-1213)”, the kon in experiment [1] worked out at 75400 M⁻¹ s⁻¹; in experiment [2] it was 115000 M⁻¹ s⁻¹; in experiment [3] it was 34300 M⁻¹ s⁻¹; in experiment [4], 18400 M⁻¹ s⁻¹; in experiment [5] it was 54300 M⁻¹ s⁻¹; in experiment [6], 11300 M⁻¹ s⁻¹.
